B1: SDGF-TB1G1 (TB1G1 displayed on 293F cells) [designed binder] / Biotinylated His-Avi-TEAD1(194–411) [modified: biotin (BirA-500 kit); biotin (BirA-500 kit)] [not stated] (parent complex)
chain 1: PDEYIERAKECCKKGDIQCCLRYFEESGDPNVMLICLFCP
chain 2: RSIGTTKLRLVEFSAFLEQQRDPDSYNKHLFVHIGHANHSYSDPLLESVDIRQIYDKFPEKKGGLKELFGKGPQNAFFLVKFWADLNCNIQDDAGAFYGVTSQYESSENMTVTCSTKVCSFGKQVVEKVETEYARFENGRFVYRINRSPMCEYMINFIHKLKHLPEKYMMNSVLENFTILLVVTNRDTQETLLCMACVFEVSNSEHGAQHHIYRLVKD

Variants of: B1
Assay: mammalian (293F) surface display of a site-saturation mutagenesis library (every non-Cys single substitution), FACS sorting on biotinylated TEAD1 YBD, two sorting rounds, Illumina sequencing with perfect-match mapping; 20 nM biotinylated TEAD, monovalent 2-step stain (TEAD alone 30 min at 4 °C, dilute, pellet, then 20 nM streptavidin-Alexa Fluor 647), flow sorting on a BD Aria

Variant | enrichment
chain 1 PDENIERAKECCKKGDIQCCLRYFEESGDPNVMLICLFCP [chain 1 Y4N] | 0.0419 log2 (fold change of variant abundance after two TEAD sorts vs input, normalised to TB1G1)
chain 1 PSEYIERAKECCKKGDIQCCLRYFEESGDPNVMLICLFCP [chain 1 D2S] | -1.01 log2 (fold change of variant abundance after two TEAD sorts vs input, normalised to TB1G1)
chain 1 PVEYIERAKECCKKGDIQCCLRYFEESGDPNVMLICLFCP [chain 1 D2V] | -2.34 log2 (fold change of variant abundance after two TEAD sorts vs input, normalised to TB1G1)
chain 1 PEEYIERAKECCKKGDIQCCLRYFEESGDPNVMLICLFCP [chain 1 D2E] | 1.16 log2 (fold change of variant abundance after two TEAD sorts vs input, normalised to TB1G1)
chain 1 PQEYIERAKECCKKGDIQCCLRYFEESGDPNVMLICLFCP [chain 1 D2Q] | -0.201 log2 (fold change of variant abundance after two TEAD sorts vs input, normalised to TB1G1)
chain 1 PPEYIERAKECCKKGDIQCCLRYFEESGDPNVMLICLFCP [chain 1 D2P] | -2.11 log2 (fold change of variant abundance after two TEAD sorts vs input, normalised to TB1G1)
chain 1 PYEYIERAKECCKKGDIQCCLRYFEESGDPNVMLICLFCP [chain 1 D2Y] | -1.63 log2 (fold change of variant abundance after two TEAD sorts vs input, normalised to TB1G1)
chain 1 PLEYIERAKECCKKGDIQCCLRYFEESGDPNVMLICLFCP [chain 1 D2L] | -3.53 log2 (fold change of variant abundance after two TEAD sorts vs input, normalised to TB1G1)
chain 1 PREYIERAKECCKKGDIQCCLRYFEESGDPNVMLICLFCP [chain 1 D2R] | -7.12 log2 (fold change of variant abundance after two TEAD sorts vs input, normalised to TB1G1)
chain 1 PDEYIERAIECCKKGDIQCCLRYFEESGDPNVMLICLFCP [chain 1 K9I] | -3.03 log2 (fold change of variant abundance after two TEAD sorts vs input, normalised to TB1G1)
chain 1 PDEYIERAVECCKKGDIQCCLRYFEESGDPNVMLICLFCP [chain 1 K9V] | -8.88 log2 (fold change of variant abundance after two TEAD sorts vs input, normalised to TB1G1)
chain 1 PDEYIERAFECCKKGDIQCCLRYFEESGDPNVMLICLFCP [chain 1 K9F] | -3.52 log2 (fold change of variant abundance after two TEAD sorts vs input, normalised to TB1G1)
chain 1 PDEYIERASECCKKGDIQCCLRYFEESGDPNVMLICLFCP [chain 1 K9S] | -0.907 log2 (fold change of variant abundance after two TEAD sorts vs input, normalised to TB1G1)
chain 1 PDEYIERAWECCKKGDIQCCLRYFEESGDPNVMLICLFCP [chain 1 K9W] | -4.41 log2 (fold change of variant abundance after two TEAD sorts vs input, normalised to TB1G1)
chain 1 PDEYIERARECCKKGDIQCCLRYFEESGDPNVMLICLFCP [chain 1 K9R] | -1.3 log2 (fold change of variant abundance after two TEAD sorts vs input, normalised to TB1G1)
chain 1 PDEYIERAQECCKKGDIQCCLRYFEESGDPNVMLICLFCP [chain 1 K9Q] | 1.1 log2 (fold change of variant abundance after two TEAD sorts vs input, normalised to TB1G1)
chain 1 PDEYIERAEECCKKGDIQCCLRYFEESGDPNVMLICLFCP [chain 1 K9E] | 3.95 log2 (fold change of variant abundance after two TEAD sorts vs input, normalised to TB1G1)
chain 1 PDEYIERATECCKKGDIQCCLRYFEESGDPNVMLICLFCP [chain 1 K9T] | 2.68 log2 (fold change of variant abundance after two TEAD sorts vs input, normalised to TB1G1)
chain 1 PDEYIERANECCKKGDIQCCLRYFEESGDPNVMLICLFCP [chain 1 K9N] | 3.31 log2 (fold change of variant abundance after two TEAD sorts vs input, normalised to TB1G1)

Variant | enrichment
chain 1 PDEYIARAKECCKKGDIQCCLRYFEESGDPNVMLICLFCP [chain 1 E6A] | -0.676 log2 (fold change of variant abundance after two TEAD sorts vs input, normalised to TB1G1)
chain 1 PDEYIVRAKECCKKGDIQCCLRYFEESGDPNVMLICLFCP [chain 1 E6V] | -1.55 log2 (fold change of variant abundance after two TEAD sorts vs input, normalised to TB1G1)
chain 1 PDEYILRAKECCKKGDIQCCLRYFEESGDPNVMLICLFCP [chain 1 E6L] | -0.404 log2 (fold change of variant abundance after two TEAD sorts vs input, normalised to TB1G1)
chain 1 PDEYIYRAKECCKKGDIQCCLRYFEESGDPNVMLICLFCP [chain 1 E6Y] | -2.33 log2 (fold change of variant abundance after two TEAD sorts vs input, normalised to TB1G1)
chain 1 PDEYIIRAKECCKKGDIQCCLRYFEESGDPNVMLICLFCP [chain 1 E6I] | -1.56 log2 (fold change of variant abundance after two TEAD sorts vs input, normalised to TB1G1)
chain 1 PDEYISRAKECCKKGDIQCCLRYFEESGDPNVMLICLFCP [chain 1 E6S] | -1.09 log2 (fold change of variant abundance after two TEAD sorts vs input, normalised to TB1G1)
chain 1 PDEYITRAKECCKKGDIQCCLRYFEESGDPNVMLICLFCP [chain 1 E6T] | -0.921 log2 (fold change of variant abundance after two TEAD sorts vs input, normalised to TB1G1)
chain 1 PDEYIMRAKECCKKGDIQCCLRYFEESGDPNVMLICLFCP [chain 1 E6M] | -2.04 log2 (fold change of variant abundance after two TEAD sorts vs input, normalised to TB1G1)
chain 1 PDEYRERAKECCKKGDIQCCLRYFEESGDPNVMLICLFCP [chain 1 I5R] | -3.27 log2 (fold change of variant abundance after two TEAD sorts vs input, normalised to TB1G1)
chain 1 PDEYAERAKECCKKGDIQCCLRYFEESGDPNVMLICLFCP [chain 1 I5A] | -1.2 log2 (fold change of variant abundance after two TEAD sorts vs input, normalised to TB1G1)
chain 1 PDEYMERAKECCKKGDIQCCLRYFEESGDPNVMLICLFCP [chain 1 I5M] | -1.87 log2 (fold change of variant abundance after two TEAD sorts vs input, normalised to TB1G1)
chain 1 PDEYNERAKECCKKGDIQCCLRYFEESGDPNVMLICLFCP [chain 1 I5N] | -1.34 log2 (fold change of variant abundance after two TEAD sorts vs input, normalised to TB1G1)
chain 1 PDEYWERAKECCKKGDIQCCLRYFEESGDPNVMLICLFCP [chain 1 I5W] | -7.46 log2 (fold change of variant abundance after two TEAD sorts vs input, normalised to TB1G1)
chain 1 PDEYFERAKECCKKGDIQCCLRYFEESGDPNVMLICLFCP [chain 1 I5F] | -8.36 log2 (fold change of variant abundance after two TEAD sorts vs input, normalised to TB1G1)
chain 1 PDEYGERAKECCKKGDIQCCLRYFEESGDPNVMLICLFCP [chain 1 I5G] | -3.97 log2 (fold change of variant abundance after two TEAD sorts vs input, normalised to TB1G1)
chain 1 PDEYKERAKECCKKGDIQCCLRYFEESGDPNVMLICLFCP [chain 1 I5K] | -1.5 log2 (fold change of variant abundance after two TEAD sorts vs input, normalised to TB1G1)
chain 1 PDEYLERAKECCKKGDIQCCLRYFEESGDPNVMLICLFCP [chain 1 I5L] | -0.381 log2 (fold change of variant abundance after two TEAD sorts vs input, normalised to TB1G1)
chain 1 PDEYVERAKECCKKGDIQCCLRYFEESGDPNVMLICLFCP [chain 1 I5V] | -0.274 log2 (fold change of variant abundance after two TEAD sorts vs input, normalised to TB1G1)
chain 1 PDEYIERAKECCKKGDIQCCLRYFEESGDPNVILICLFCP [chain 1 M33I] | -3.16 log2 (fold change of variant abundance after two TEAD sorts vs input, normalised to TB1G1)

Variants of: B1
Assay: not given

ratio to parent | Variant
~0.01 | chain 1 M33A

From article PMC5740061 (Nature Communications, 2017)
